According to US20140322196A1:

B1: bLf C-lobe (aa 285-689) (protein)
chain: SFQLFGSPPGQRDLLFKDSALGFLRIPSKVDSALYLGSRYLTTLKNLRETAEEVKARYTRVVWCAVGPEEQKKCQQWSQQSGQNVTCATASTTDDCIVLVLKGEADALNLDGGYIYTAGKCGLVPVLAENRKSSKHSSLDCVLRPTEGYLAVAVVKKANEGLTWNSLKDKKSCHTAVDRTAGWNIPMGLIVNQTGSCAFDEFFSQSCAPGADPKSRLCALCAGDDQGLDKCVPNSKEKYYGYTGAFRCLAEDVGDVAFVKNDTVWENTNGESTADWAKNLNREDFRLLCLDGTRKPVTEAQSCHLAVAPNHAVVSRSDRAAHVKQVLLHQQALFGKNGKNCPDKFCLFKSETKNLLFNDNTECLAKLGGRPTYEEYLGTEYVTAIANLKKCSTSPLLEACAFLTR
B2: bLf C-lobe (aa 345-689) (protein)
chain: VVWCAVGPEEQKKCQQWSQQSGQNVTCATASTTDDCIVLVLKGEADALNLDGGYIYTAGKCGLVPVLAENRKSSKHSSLDCVLRPTEGYLAVAVVKKANEGLTWNSLKDKKSCHTAVDRTAGWNIPMGLIVNQTGSCAFDEFFSQSCAPGADPKSRLCALCAGDDQGLDKCVPNSKEKYYGYTGAFRCLAEDVGDVAFVKNDTVWENTNGESTADWAKNLNREDFRLLCLDGTRKPVTEAQSCHLAVAPNHAVVSRSDRAAHVKQVLLHQQALFGKNGKNCPDKFCLFKSETKNLLFNDNTECLAKLGGRPTYEEYLGTEYVTAIANLKKCSTSPLLEACAFLTR

Columns and labels:
[1] = molecular target: Hemagglutinin (HA) of Influenza SW [change] 1089/09 swine pandemic H1N1 (inactivated subunits, vaccine) (Influenza A virus SW [change] swine pandemic H1N1); experiment: cell-based or functional assay
[2] = molecular target: Hemagglutinin (HA) of Avian 29/05/06 H5N1 (inactivated vaccine) (Influenza A virus Avian 29/05/06 H5N1); experiment: cell-based or functional assay

Binder | activity on viral hemagglutination (HI) [1] [fM] | activity on viral hemagglutination (HI) [2] [pM]
B1 | 46.5 | 2.9
B2 | 46.5 | 2.4
